Results from patent US20230085357A1, “INJECTABLE HIGH CONCENTRATION PHARMACEUTICAL FORMULATIONS AND METHODS OF MANUFACTURING AND USE THEREOF” (Xeris Pharmaceuticals, Inc., priority 2021, published 2023).

How the values were obtained:
[1] = Bevacizumab pharmacokinetics, plasma concentration after single 100 mg dose IV or SC; type: in vivo; settings: female Gottingen minipigs, mean
[2] = IV product; cited from earlier work
[3] = single dose, plasma, uncorrected

| Substance | AUC336/D ([1]; dose-corrected) [kg·µg·h/mL/mg] | AUClast/D ([1]; dose-corrected) [kg·µg·h/mL/mg] | AUC∞/D ([1]; dose-corrected) [kg·µg·h/mL/mg] | Cmax/D ([1]; dose-corrected) [kg·µg/mL/mg] | T1/2 ([1]; single dose, plasma) [h] | AUC336 [1, 3] [µg·h/mL] | AUClast [1, 3] [µg·h/mL] | AUC∞ [1, 3] [µg·h/mL] | Cmax [1, 3] [µg/mL] | average clearance rate [2] | half-life [2] |
| --- | --- | --- | --- | --- | --- | --- | --- | --- | --- | --- | --- |
| Avastin ® | 3084 | 5215 | 5357 | 24.7 | 227 | 28380 | 47990 | 49271 | 230 |  |  |
| bevacizumab: human monoclonal antibody that binds Vascular Endothelial Growth Factor (VEGF), commercialized under the AVASTIN® brand |  |  |  |  |  |  |  |  |  | about 0.262 L/day | about 20 days |
